Here are results for nine sequences from the Immune Epitope Database (IEDB).

Assay [1] addresses HLA-A*02:01. Kind of assay: IEDB peptide-MHC binding, purified MHC/competitive/radioactivity; ≥ and ≤ were set here for values at or beyond the usual limits of such assays. Particulars: source organism: Lassa virus Josiah.
For assay [2], the target named is HLA-A*02:02. Described as above.
The target in assay [3] is HLA-A*02:03. Described as above.
Assay [4] deals with HLA-A*02:06. The assay is described as above.
Assay [5] addresses HLA-A*68:02. Kind of assay: IEDB peptide-MHC binding, purified MHC/competitive/radioactivity; filed as Kd, often an IC50 or EC50 that approximates it; ≥ and ≤ were set here for values at or beyond the usual limits of such assays.
Setting [6] is: source organism: Lassa virus Josiah.
The mark [7] stands for this setting: source organism: Lassa virus GA391.

Usually IC50 stands for the concentration at which inhibition is half-maximal. For orientation: Kd means the free concentration of one partner at which half of the binding sites on the other are occupied at equilibrium, for simple one-to-one binding.

Take LIALSVLAV: the IC50 in assay [1] is 102 nM.

On to IISTFHLSI, for which the IC50 in assay [1] was 330 nM.

For ILAADLEKL, the IC50 in assay [1] was 92 nM.

For the sequence LMSIISTFHL, in assay [1], the IC50 is 113 nM.

With GLYKQPGVPV, the IC50 in assay [1] stood at 89 nM.

On to GLYNFATCGL, for which the IC50 in assay [1] came out at 31 nM.

For SLYKGVYEL, the IC50 in assay [1] came to 47 nM; in assay [2] (setting [6]) it was 115 nM; in assay [3] (setting [6]), 12 nM; in assay [4] (setting [6]), 395 nM. In addition, in assay [5] (setting [6]), the Kd is at least 10000 nM.

As to VLIALSVLAV, in assay [1], the IC50 was determined as 485 nM.

For YLISIFLHL, the IC50 worked out at 14 nM in assay [1], 173 nM in assay [2] (setting [7]), 11 nM in assay [3] (setting [7]) and 10 nM in assay [4] (setting [7]). The Kd in assay [5] (setting [7]) was determined as 6660 nM.
